Data as given in patent US20140228277A1 (Genentech, published 2014).
Positions of bridges follow the written chain, without caps; N, C: chain ends. Non-standard residues stand in square brackets, D forms with d. No end group written: not given here. Cit = NC(=O)NCCC[C@H](N)C(=O)O; Orn = NCCC[C@H](N)C(=O)O

B1: BACE030 (peptide)
peptide: Ac-ESMYCRLLGIGCG-NH2
modifications: disulfide 5-12
SMILES: CC[C@H](C)[C@@H]1NC(=O)CNC(=O)[C@H](CC(C)C)NC(=O)[C@H](CC(C)C)NC(=O)[C@H](CCCNC(=N)N)NC(=O)[C@@H](NC(=O)[C@H](Cc2ccc(O)cc2)NC(=O)[C@H](CCSC)NC(=O)[C@H](CO)NC(=O)[C@H](CCC(=O)O)NC(C)=O)CSSC[C@@H](C(=O)NCC(N)=O)NC(=O)CNC1=O
notes: Minimal version of BACE020 with full activity
B2: BACE059 (peptide)
peptide: Ac-ESMYC[Orn]LLGIGCG-NH2
modifications: disulfide 5-12 (inferred)
notes: also called BACE030 with Arg to ornithine
B3: BACE020 (peptide)
peptide: Ac-NEESMYCRLLGIGCG-NH2
modifications: disulfide 7-14
SMILES: CC[C@H](C)[C@@H]1NC(=O)CNC(=O)[C@H](CC(C)C)NC(=O)[C@H](CC(C)C)NC(=O)[C@H](CCCNC(=N)N)NC(=O)[C@@H](NC(=O)[C@H](Cc2ccc(O)cc2)NC(=O)[C@H](CCSC)NC(=O)[C@H](CO)NC(=O)[C@H](CCC(=O)O)NC(=O)[C@H](CCC(=O)O)NC(=O)[C@H](CC(N)=O)NC(C)=O)CSSC[C@@H](C(=O)NCC(N)=O)NC(=O)CNC1=O
notes: also called BACE20; BACE-20
B4: BMS1 (peptide)
peptide: Ac-NLTTYPYFIPLP-NH2
notes: also called Peptide 1 of Kornacker et al
B5: BMS4 (peptide)
peptide: Ac-YPYFIPL-NH2
notes: also called Peptide 4 of Kornacker et al
B6: BACE060 (peptide)
peptide: Ac-ESMYC[Cit]LLGIGCG-NH2
modifications: disulfide 5-12 (inferred)
notes: also called BACE030 with Arg to citrulline
B7: BMS2 (peptide)
peptide: Ac-ALYPYFLPISAK-NH2
notes: also called Peptide 2 of Kornacker et al
B8: phage-displayed peptide BACE019 (SEQ ID NO 15) (peptide)
chain: NELSPYCRLMGLGCD
notes: not shown: M13 major coat protein; peptide fused to its N-terminus
B9: phage-displayed peptide BACE021 (SEQ ID NO 17) (peptide)
chain: PEESLYCRLLALGCG
notes: as for B8
B10: phage-displayed peptide BACE020 (SEQ ID NO 16) (peptide)
chain: NEESMYCRLLGIGCG
modifications: disulfide 7-14; also: displayed on M13 phage as N-terminal fusion to the coat protein
notes: as for B8
B11: phage-displayed peptide BACE018 (SEQ ID NO 14) (peptide)
chain: KEESIYCRLMGLGCG
notes: as for B8

What follows are binders tested against T1, recombinant human BACE1 (rhBACE1) (human, UniProt P56817 22-457, limits assumed) (assay: cell-based or functional assay).
T1 sequence (P56817 22-457 limits assumed): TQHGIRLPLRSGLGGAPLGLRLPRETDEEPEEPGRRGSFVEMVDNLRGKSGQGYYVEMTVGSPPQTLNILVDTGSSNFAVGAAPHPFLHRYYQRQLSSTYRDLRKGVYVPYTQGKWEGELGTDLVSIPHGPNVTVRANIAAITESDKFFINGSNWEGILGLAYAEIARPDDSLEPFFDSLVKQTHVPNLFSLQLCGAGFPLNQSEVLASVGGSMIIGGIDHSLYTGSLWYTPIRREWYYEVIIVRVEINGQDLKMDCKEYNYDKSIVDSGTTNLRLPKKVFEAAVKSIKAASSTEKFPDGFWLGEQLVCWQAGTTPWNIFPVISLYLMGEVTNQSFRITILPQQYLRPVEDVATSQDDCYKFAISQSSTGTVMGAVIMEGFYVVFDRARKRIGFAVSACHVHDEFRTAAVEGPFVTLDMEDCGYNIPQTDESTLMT

| Binder | Caliper (MCE) BACE1 activity assay IC50 [µM] | HTRF BACE1 activity assay IC50 [µM] | Caliper (MCE) BACE1 activity assay, EC50 (rate increased) [µM] |
| --- | --- | --- | --- |
| Ac-AEESMYCRLLGIGCG-NH2 (disulfide 7-14 (inferred), also called BACE020 position 1 to Ala) [BACE042] | 0.012 |  |  |
| Ac-NEESMYCRLLGIGCA-NH2 (disulfide 7-14 (inferred), also called BACE020 Gly15 to Ala) [BACE054] | 0.007 |  |  |
| Ac-NEEAMYCRLLGIGCG-NH2 (disulfide 7-14 (inferred), also called BACE020 Ser4 to Ala) [BACE045] | 0.304 |  |  |
| Ac-NEESMFCRLLGIGCG-NH2 (disulfide 7-14 (inferred), also called BACE020 Tyr6 to Phe) [BACE055] | 0.011 |  |  |
| Ac-NEESAYCRLLGIGCG-NH2 (disulfide 7-14 (inferred), also called BACE020 Met5 to Ala) [BACE046] | 0.435 |  |  |
| Ac-NEEHMYCRLLGIGCG-NH2 (disulfide 7-14 (inferred), also called BACE020 Ser4 to His) [BACE056] | 3.58 |  |  |
| Ac-NEESMYCRLAGIGCG-NH2 (disulfide 7-14 (inferred), also called BACE020 Leu10 to Ala) [BACE050] | 0.049 |  |  |
| Ac-NEESMYCRLLAIGCG-NH2 (disulfide 7-14 (inferred), also called BACE020 Gly11 to Ala) [BACE051] | 0.018 |  |  |
| Ac-NEESMYCRLLGIACG-NH2 (disulfide 7-14 (inferred), also called BACE020 Gly13 to Ala) [BACE053] | 0.007 |  |  |
| Ac-NAESMYCRLLGIGCG-NH2 (disulfide 7-14 (inferred), also called BACE020 Glu2 to Ala) [BACE043] | 0.013 |  |  |
| Ac-NEESMACRLLGIGCG-NH2 (disulfide 7-14 (inferred), also called BACE020 Tyr6 to Ala) [BACE047] | 0.093 |  |  |
| Ac-NEASMYCRLLGIGCG-NH2 (disulfide 7-14 (inferred), also called BACE020 Glu3 to Ala) [BACE044] | 0.046 |  |  |
| Ac-NEESMYCALLGIGCG-NH2 (disulfide 7-14 (inferred), also called BACE020 Arg8 to Ala mutant) [BACE048] | > 10 |  |  |
| Ac-NEESMYCRALGIGCG-NH2 (disulfide 7-14 (inferred), also called BACE020 Leu9 to Ala) [BACE049] | 1.38 |  |  |
| Ac-NEESMYCRLLGAGCG-NH2 (disulfide 7-14 (inferred), also called BACE020 Ile12 to Ala) [BACE052] | 0.014 |  |  |
| Ac-SMYCRLLGIGCG-NH2 (disulfide 4-11 (inferred), also called BACE31) [BACE031] | 1.28 |  |  |
| B1 | 0.018 |  |  |
| Ac-ESMYCKLLGIGCG-NH2 (disulfide 5-12 (inferred), also called BACE030 with Arg to lysine) [BACE058] | 0.074 |  |  |
| B2 | 0.222 |  |  |
| Ac-PEESLYCRLLALGCG-NH2 (disulfide 7-14 (inferred), also called BACE-21) [BACE021] | 0.017 | 0.022 |  |
| Ac-KEESIYCRLMGLGCG-NH2 (disulfide 7-14 (inferred), also called BACE-18) [BACE018] | 0.054 | 0.077 |  |
| Ac-EESMYCRLLGIGCG-NH2 (disulfide 6-13 (inferred), N-terminal truncation of BACE020) [BACE029] | 0.013 |  |  |
| B3 | 0.011 | 0.012 |  |
| Ac-NELSPYCRLMGLGCD-NH2 (disulfide 7-14 (inferred), also called BACE-19) [BACE019] | 0.015 | 0.01 |  |
| Ac-SGPYFIEYMSAV-NH2 (also called BACE10) [BACE010 (Ac-SGPYFIEYMSAV-NH2)] |  |  | 2.2 |
| B4 |  |  | 0.227 |
| B5 |  |  | 1.76 |
| B6 | 0.772 |  |  |
| B7 |  |  | 26.4 |

Each binder was assayed against T1, recombinant human BACE1 (rhBACE1) (assay: spot phage ELISA, signal on BACE1 over signal on BSA).
Method: After 4 rounds of binding selection, individual phage clones were analyzed in a high-throughput spot phage ELISA (Sidhu, S. S. et al. (2000) Methods Enzymol 328: 333-63) using plate-immobilized BACE1 as the target. The binding signal of the same phage particle to BSA was detected as non-specific binding noise. Clones with phage binding signal to target over 0.5 and signal/noise ratio>3 were considered to be positive clones and were subjected to DNA sequence analysis.

| Binder | signal/noise ratio |
| --- | --- |
| B8 | > 20 |
| B9 | > 20 |
| B10 | > 20 |
| B11 | > 20 |

Each binder was assayed against T1, recombinant human BACE1 (rhBACE1) (assay: spot phage ELISA, plate-immobilized BACE1 against BSA).

| Binder | fold improvement of signal/noise ratio over parent BACE017 [fold] |
| --- | --- |
| B8 | > 5 |
| B9 | > 5 |
| B10 | > 5 |
| B11 | > 5 |

The binders below were run against T1, recombinant human BACE1 (rhBACE1) (assay: FP competition binding; 12 nM rhBACE1, competitor probe 5-TAMRA-BACE020).
Method: BACE1 binding assays were carried out in a final volume of 10 μL per well in black 384-well microplates (Proxiplate-Plus; Perkin Elmer, Waltham, Mass.). […] The reaction was permitted to proceed towards equilibrium for 2 h at ambient temperature prior to fluorescence polarization measurement using Envision (Perkin Elmer). The parallel and perpendicular fluorescent emissions measured in each well at 595 nm (excitation 531 nm polarized light) were used to determine the milli-polarization level (mP) using the following formula: mP=1000*(S−G*P)/(S+G*P) where S=parallel emission, P=perpendicular emission and G=0.65.
The affinities of BACE1 peptide ligands were measured using the abovementioned competition binding FP assay for determining IC₅₀ values with serially diluted peptides. A Caliper assay was used to measure the inhibition of BACE1 enzymatic activity by peptide ligands.

| Binder | IC50 [nM] |
| --- | --- |
| Ac-AEESMYCRLLGIGCG-NH2 (disulfide 7-14 (inferred), also called BACE020 position 1 to Ala) [BACE042] | 31 |
| Ac-NEESMYCRLLGIGCA-NH2 (disulfide 7-14 (inferred), also called BACE020 Gly15 to Ala) [BACE054] | 12 |
| Ac-NEEAMYCRLLGIGCG-NH2 (disulfide 7-14 (inferred), also called BACE020 Ser4 to Ala) [BACE045] | 2340 |
| Ac-NEESMFCRLLGIGCG-NH2 (disulfide 7-14 (inferred), also called BACE020 Tyr6 to Phe) [BACE055] | 27 |
| Ac-NEESAYCRLLGIGCG-NH2 (disulfide 7-14 (inferred), also called BACE020 Met5 to Ala) [BACE046] | 1570 |
| Ac-NEEHMYCRLLGIGCG-NH2 (disulfide 7-14 (inferred), also called BACE020 Ser4 to His) [BACE056] | 4500 |
| Ac-NEESMYCRLAGIGCG-NH2 (disulfide 7-14 (inferred), also called BACE020 Leu10 to Ala) [BACE050] | 186 |
| Ac-NEESMYCRLLAIGCG-NH2 (disulfide 7-14 (inferred), also called BACE020 Gly11 to Ala) [BACE051] | 36 |
| Ac-NEESMYCRLLGIACG-NH2 (disulfide 7-14 (inferred), also called BACE020 Gly13 to Ala) [BACE053] | 37 |
| Ac-NAESMYCRLLGIGCG-NH2 (disulfide 7-14 (inferred), also called BACE020 Glu2 to Ala) [BACE043] | 41 |
| Ac-NEESMACRLLGIGCG-NH2 (disulfide 7-14 (inferred), also called BACE020 Tyr6 to Ala) [BACE047] | 225 |
| Ac-NEASMYCRLLGIGCG-NH2 (disulfide 7-14 (inferred), also called BACE020 Glu3 to Ala) [BACE044] | 131 |
| Ac-NEESMYCALLGIGCG-NH2 (disulfide 7-14 (inferred), also called BACE020 Arg8 to Ala mutant) [BACE048] | > 10000 |
| Ac-NEESMYCRALGIGCG-NH2 (disulfide 7-14 (inferred), also called BACE020 Leu9 to Ala) [BACE049] | 7700 |
| Ac-NEESMYCRLLGAGCG-NH2 (disulfide 7-14 (inferred), also called BACE020 Ile12 to Ala) [BACE052] | 39 |
| Ac-SMYCRLLGIGCG-NH2 (disulfide 4-11 (inferred), also called BACE31) [BACE031] | 2600 |
| B1 | 23 |
| Ac-ESMYCKLLGIGCG-NH2 (disulfide 5-12 (inferred), also called BACE030 with Arg to lysine) [BACE058] | 486 |
| B2 | 512 |
| Ac-PEESLYCRLLALGCG-NH2 (disulfide 7-14 (inferred), also called BACE-21) [BACE021] | 25 |
| Ac-KEESIYCRLMGLGCG-NH2 (disulfide 7-14 (inferred), also called BACE-18) [BACE018] | 102 |
| Ac-EESMYCRLLGIGCG-NH2 (disulfide 6-13 (inferred), N-terminal truncation of BACE020) [BACE029] | 12 |
| B3 | 11 |
| Ac-NELSPYCRLMGLGCD-NH2 (disulfide 7-14 (inferred), also called BACE-19) [BACE019] | 10 |
| Ac-SGPYFIEYMSAV-NH2 (also called BACE10) [BACE010 (Ac-SGPYFIEYMSAV-NH2)] | > 10000 |
| B4 | > 10000 |
| B5 | > 10000 |
| B6 | 2300 |
| B7 | > 10000 |
